Residue numbers refer to the chain shown, from its start. Names may count otherwise.
Columns and labels:
[1] = biological target: the molecule itself; assay: SEC; analytical SEC of each protein alone (mtHsp60 samples 17 µM monomer); Superdex 200 Increase 3.2/300, room temperature, 20 mM HEPES pH 7.5, 100 mM KCl, 10 mM MgCl2
[2] = biological target: T1, mitochondrial heat shock protein 60 V72I (mtHsp60^V72I) (human, UniProt P10809 53-573, V72I); assay: cryo-EM structure; mtHsp60^V72I 0.2-0.6 mg/ml in ATPase buffer without detergent, 1 mM ATP; conditions: both partners purified
[3] = biological target: T1, mitochondrial heat shock protein 60 …; assay: SEC-MALS; mtHsp60 samples 17 µM monomer, without ATP; Shodex Protein KW-804, room temperature, 20 mM HEPES pH 7.5, 100 mM KCl, 10 mM MgCl2; heptamer to monomers; conditions: both partners purified
mtHsp60 Y201A = mtHsp60 Y201A (human, UniProt P10809 53-573, Y201A); assay: SEC; analytical SEC of each protein alone (mtHsp60 samples 17 µM monomer); Superdex 200 Increase 3.2/300, room temperature, 20 mM HEPES pH 7.5, 100 mM KCl, 10 mM MgCl2; conditions: both partners purified

B1: mitochondrial malate dehydrogenase labelled with fluorescein isothiocyanate (FITC-mtMDH) (enzyme, human, UniProt P40926 25-338, looked up)
chain: AKVAVLGASGGIGQPLSLLLKNSPLVSRLTLYDIAHTPGVAADLSHIETKAAVKGYLGPEQLPDCLKGCDVVVIPAGVPRKPGMTRDDLFNTNATIVATLTAACAQHCPEAMICVIANPVNSTIPITAEVFKKHGVYNPNKIFGVTTLDIVRANTFVAELKGLDPARVNVPVIGGHAGKTIIPLISQCTPKVDFPQDQLTALTGRIQEAGTEVVKAKAGAGSATLSMAYAGARFVFSLVDAMNGKEGVVECSFVKSQETECTYFSTPLLLGKKGIEKNLGIGKVSSFEEKMISDAIPELKASIKKGEDFVKTLK
modifications: FITC (fluorescein isothiocyanate) label, sites not stated
notes: mitochondrial malate dehydrogenase (mtMDH), human; bacterial expression vector Addgene plasmid no; 38792; Used folded (elutes as a dimer) or chemically denatured (6 M guanidine HCl, 10 mM DTT, 1 h); the two states are told apart by the assays; also called FITC-mtMDH^denat (guanidine-denatured form); source: E. coli Rosetta 2(DE3)pLysS, purified (HisTrap, SEC), labelled with FITC
stoichiometry N [1]: 2

B2: mitochondrial heat shock protein 60 V72I (mtHsp60^V72I) (natural protein)
chain: AKDVKFGADARALMLQGVDLLADAVAVTMGPKGRTVIIEQSWGSPKVTKDGVTVAKSIDLKDKYKNIGAKLIQDVANNTNEEAGDGTTTATVLARSIAKEGFEKISKGANPVEIRRGVMLAVDAVIAELKKQSKPVTTPEEIAQVATISANGDKEIGNIISDAMKKVGRKGVITVKDGKTLNDELEIIEGMKFDRGYISPYFINTSKGQKCEFQDAYVLLSEKKISSIQSIVPALEIANAHRKPLVIIAEDVDGEALSTLVLNRLKVGLQVVAVKAPGFGDNRKNQLKDMAIATGGAVFGEEGLTLNLEDVQPHDLGKVGEVIVTKDDAMLLKGKGDKAQIEKRIQEIIEQLDVTTSEYEKEKLNERLAKLSDGVAVLKVGGTSDVEVNEKKDRVTDALNATRAAVEEGIVLGGGCALLRCIPALDSLTPANEDQKIGIEIIKRTLKIPAMTIAKNAGVEGSLIVEKIMQSSSEVGYDAMAGDFVNMVEKGIIDPTKVVRTALLDAAGVASLLTTAEVVVTEIPKEEKDPGMGAMGGMGGGMGGGMF
modifications: heptamer in apo state; ATP/Mg2+/K+ gives double-ring tetradecamer; SNA tag scar left out / heptamer in apo state; ATP/Mg2+/K+ gives double-ring tetradecamer; SNA tag scar left out
stoichiometry N [2]: 14 | stoichiometry N [3]: 7

B3: mtHsp60 Y201A (natural protein)
chain: B2 chain with I72V, Y201A
modifications: at least partly heptameric by SEC; mature numbering + 26 = precursor; SNA tag scar left out / at least partly heptameric by SEC; mature numbering + 26 = precursor; SNA tag scar left out
stoichiometry N (mtHsp60 Y201A): 7
